According to article PMC11973430, “Rubisco packaging and stoichiometric composition of the native β-carboxysome in Synechococcus elongatus PCC7942” (Plant Physiology, 2024):

Target: T1, Rubisco L8S8 hexadecamer (Form IB ribulose-1,5-bisphosphate carboxylase/oxygenase) of Synechococcus elongatus … (Synechococcus elongatus PCC7942 …, UniProt Q31NB3 1-472; Q31NB2 1-111)
T1 construct: Rubisco large subunit RbcL, Synechococcus elongatus PCC7942, GenBank ABB57456.1; 52.4 kDa; Rubisco small subunit RbcS, Synechococcus elongatus PCC7942, GenBank ABB57457.1; 13.3 kDa; Native holoenzyme imaged inside isolated β-carboxysomes; not separated from the other carboxysome proteins; also called Rubisco complex; Form IB Rubisco; source: endogenous, inside β-carboxysomes purified from Syn7942 …
T1 sequence (Q31NB2 whole entry, chain 2 of 2, other chains not shown): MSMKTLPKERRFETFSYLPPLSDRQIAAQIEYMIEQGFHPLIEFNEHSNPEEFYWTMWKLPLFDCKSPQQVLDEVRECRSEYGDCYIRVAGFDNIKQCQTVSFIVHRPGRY
Assay: cryo-EM structure; cryoET and subtomogram averaging (emClarity, D4 symmetry) of Rubisco inside isolated native Syn7942 β-carboxysomes (185 carboxysomes) in TEMB buffer (10 mM Tris-HCl pH 8.0, 1 mM EDTA, 10 mM MgCl2, 20 mM NaHCO3); 3.5 Å
Details: partners not purified

B1: Carboxysome scaffolding (linker) protein CcmM of Synechococcus elongatus PCC7942 (natural protein, UniProt Q03513-2 1-324, looked up)
chain: MSAYNGQGRLSSEVITQVRSLLNQGYRIGTEHADKRRFRTSSWQPCAPIQSTNERQVLSELENCLSEHEGEYVRLLGIDTNTRSRVFEALIQRPDGSVPESLGSQPVAVASGGGRQSSYASVSGNLSAEVVNKVRNLLAQGYRIGTEHADKRRFRTSSWQSCAPIQSSNERQVLAELENCLSEHEGEYVRLLGIDTASRSRVFEALIQDPQGPVGSAKAAAAPVSSATPSSHSYTSNGSSSSDVAGQVRGLLAQGYRISAEVADKRRFQTSSWQSLPALSGQSEATVLPALESILQEHKGKYVRLIGIDPAARRRVAELLIQKP
notes: CcmM, Synechococcus elongatus PCC7942, GenBank AAA27306.1; present in the native β-carboxysome as two isoforms, the full-length 58-kDa CcmM58 and the 35-kDa truncated CcmM35 (three SSUL domains each); Mixture of CcmM35 and CcmM58 in the native carboxysome; also called CcmM35; CcmM58; source: endogenous, inside β-carboxysomes purified from Syn7942 (sucrose gradient ultracentrifugation)
Q: Which “stoichiometry N” value does the source give for B1 here?
A: Its value is 4 CcmM SSUL domains per Rubisco L8S8.
